Assay results published in paper PMC9381590, “DDX39B drives colorectal cancer progression by promoting the stability and nuclear translocation of PKM2” (Signal Transduction and Targeted Therapy, 2022).

B1: purified recombinant PKM2 1-219 aa protein (domain or fragment)
chain: not shown
notes: also called PKM2^1–218,219aa; source: recombinant, purified
B2: purified STUB1 (natural protein, UniProt Q9UNE7 1-303, looked up)
chain: MKGKEEKEGGARLGAGGGSPEKSPSAQELKEQGNRLFVGRKYPEAAACYGRAITRNPLVAVYYTNRALCYLKMQQHEQALADCRRALELDGQSVKAHFFLGQCQLEMESYDEAIANLQRAYSLAKEQRLNFGDDIPSALRIAKKKRWNSIEERRIHQESELHSYLSRLIAAERERELEECQRNHEGDEDDSHVRAQQACIEAKHDKYMADMDELFSQVDEKRKKRDIPDYLCGKISFELMREPCITPSGITYDRKDIEEHLQRVGHFDPVTRSPLTQEQLIPNLAMKEVIDAFISENGWVEDY
notes: STIP1 homology and U-box-containing protein 1 (STUB1); the methods tell only of GST- and His-fused proteins from E. coli BL21 (DE3); source: recombinant, purified

How the values were obtained:
[1] = target: B2; experiment: in vitro competitive binding analysis; purified proteins; increasing amounts of DDX39B added to PKM2 (WT or 1-219 aa) and STUB1; western blotting; settings: both partners purified
[2] = target: T1, purified recombinant PKM2 (UniProt P14618 1-531); experiment: as above; settings: both partners purified
T1 construct: pyruvate kinase isoform M2 (PKM2); the methods tell only of GST- and His-fused proteins from E. coli BL21 (DE3); also called PKM2^WT; rPKM2; source: recombinant, purified
T1 sequence (P14618 whole entry, the tested form may be a part, canonical isoform): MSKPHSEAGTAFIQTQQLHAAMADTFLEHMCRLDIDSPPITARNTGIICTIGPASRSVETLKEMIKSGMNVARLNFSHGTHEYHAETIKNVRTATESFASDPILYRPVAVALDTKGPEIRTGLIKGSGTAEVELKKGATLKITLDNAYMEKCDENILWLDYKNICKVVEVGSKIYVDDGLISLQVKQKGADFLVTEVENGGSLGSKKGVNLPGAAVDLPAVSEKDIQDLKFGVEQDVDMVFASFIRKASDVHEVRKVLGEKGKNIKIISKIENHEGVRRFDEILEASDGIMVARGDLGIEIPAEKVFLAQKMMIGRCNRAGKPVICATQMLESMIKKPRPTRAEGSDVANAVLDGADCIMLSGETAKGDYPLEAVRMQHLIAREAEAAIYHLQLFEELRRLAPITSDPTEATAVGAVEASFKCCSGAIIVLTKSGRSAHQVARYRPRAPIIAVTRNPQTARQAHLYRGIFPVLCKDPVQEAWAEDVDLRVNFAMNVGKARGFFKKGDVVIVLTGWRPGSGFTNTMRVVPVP

B1
binding result [1]: binds

B2
binding result [2]: binds
